B1: Inhibitor of nuclear factor kappa-B kinase subunit alpha (Homo sapiens), O15111 (parent)
chain: MERPPGLRPGAGGPWEMRERLGTGGFGNVCLYQHRELDLKIAIKSCRLELSTKNRERWCHEIQIMKKLNHANVVKACDVPEELNILIHDVPLLAMEYCSGGDLRKLLNKPENCCGLKESQILSLLSDIGSGIRYLHENKIIHRDLKPENIVLQDVGGKIIHKIIDLGYAKDVDQGSLCTSFVGTLQYLAPELFENKPYTATVDYWSFGTMVFECIAGYRPFLHHLQPFTWHEKIKKKDPKCIFACEEMSGEVRFSSHLPQPNSLCSLVVEPMENWLQLMLNWDPQQRGGPVDLTLKQPRCFVLMDHILNLKIVHILNMTSAKIISFLLPPDESLHSLQSRIERETGINTGSQELLSETGISLDPRKPASQCVLDGVRGCDSYMVYLFDKSKTVYEGPFASRSLSDCVNYIVQDSKIQLPIIQLRKVWAEAVHYVSGLKEDYSRLFQGQRAAMLSLLRYNANLTKMKNTLISASQQLKAKLEFFHKSIQLDLERYSEQMTYGISSEKMLKAWKEMEEKAIHYAEVGVIGYLEDQIMSLHAEIMELQKSPYGRRQGDLMESLEQRAIDLYKQLKHRPSDHSYSDSTEMVKIIVHTVQSQDRVLKELFGHLSKLLGCKQKIIDLLPKVEVALSNIKEADNTVMFMQGKRQKEIWHLLKIACTQSSARSLVGSSLEGAVTPQTSAWLPPTSAEHDHSLSCVVTPQDGETSAQMIEENLNCLGHLSTIIHEANEEQGNSMMNLDWSWLTE

Variants of: B1
Details: with taxb1_human TAX1BP1, Q86VP1
taxb1_human TAX1BP1, Q86VP1, sequence (Q86VP1 whole entry): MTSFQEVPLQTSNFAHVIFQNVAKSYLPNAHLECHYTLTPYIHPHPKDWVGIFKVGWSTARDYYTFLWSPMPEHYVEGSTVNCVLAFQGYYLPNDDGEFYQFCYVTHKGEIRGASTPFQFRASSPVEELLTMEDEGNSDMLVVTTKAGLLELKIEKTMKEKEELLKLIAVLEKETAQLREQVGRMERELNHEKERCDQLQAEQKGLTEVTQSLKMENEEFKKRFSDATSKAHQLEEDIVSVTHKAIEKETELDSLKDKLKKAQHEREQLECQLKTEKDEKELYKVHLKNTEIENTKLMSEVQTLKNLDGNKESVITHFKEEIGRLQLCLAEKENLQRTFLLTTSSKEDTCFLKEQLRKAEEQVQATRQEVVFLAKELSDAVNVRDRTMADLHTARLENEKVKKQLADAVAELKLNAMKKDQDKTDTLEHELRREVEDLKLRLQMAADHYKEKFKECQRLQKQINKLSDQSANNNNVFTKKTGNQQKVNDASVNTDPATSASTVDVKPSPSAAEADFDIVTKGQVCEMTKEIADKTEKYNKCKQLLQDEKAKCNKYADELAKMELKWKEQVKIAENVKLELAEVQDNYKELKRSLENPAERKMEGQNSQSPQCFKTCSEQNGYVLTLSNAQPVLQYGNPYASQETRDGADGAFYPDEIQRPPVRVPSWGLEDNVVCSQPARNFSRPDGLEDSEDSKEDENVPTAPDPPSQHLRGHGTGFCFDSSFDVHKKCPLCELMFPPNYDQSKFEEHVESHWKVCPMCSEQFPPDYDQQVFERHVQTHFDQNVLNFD

Row | effect of a mutation on the interaction | Variant
1 | disrupting interaction | K44M

Source: IntAct's records for PubMed 21765415
